Results on one molecule are retold here after patent CN112961250A (CHANGCHUN GENESCIENCE PHARMACEUTICALS CO LTD, dated 2021).

The target in the assay is T1, 人VEGFC-His(金赛自构) (human).
T1 construct: also called hVEGFC-His; hVEGFC
T1 chain: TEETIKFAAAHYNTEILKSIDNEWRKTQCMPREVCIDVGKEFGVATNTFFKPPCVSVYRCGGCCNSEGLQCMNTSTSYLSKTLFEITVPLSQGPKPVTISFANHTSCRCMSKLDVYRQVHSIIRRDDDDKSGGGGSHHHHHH
Kind of assay: ELISA, human VEGFC-His coated at 1 μg/ml. (In general: In an ELISA, binding on a coated surface is turned into a signal by an enzyme label.)

B1: 抗人VEGFC单克隆抗体P01-H1L4 (antibody, V domains shown)
VH: EVRLLESGGGLVQPGGSLRLSCAASGFTFRRSTMAWVRQAPGKGLEWVSSISAQGANTYYADNVKGRFTISRDNSKNTLYLQMNSLRAEDTAVYYCARDLPAGGFGPWGRGTMVTVSS
VL: SYELTQPPSSSGTPGQRVTISCRGSSSNIGRYSVSWYQQVPGTAPKLLIYTDNQRPSGVPDRFSASKSGTSASLTITGLQSEDEADYYCAAWDDSQYGPWVFGGGTKLTVL
notes: also called 阳性对照抗体P01-H1L4; 对照抗体P01-H1L4
For the molecule B1, the binding result is listed as “binds”.
